Read-outs that look alike come from different tables or passages of the source. One block for each compound: values may come before it.
Columns and labels:
OR2T11 = target: T1, OR2T11 (Homo sapiens, UniProt Q8NH01, C119R); assay: CRE-luciferase assay, HEK293T cells expressing OR2T11 (wild-type / modified C-terminus); type: cell-based
T1 construct: Improved functional expression of modified OR-genes containing the truncated, optimized C-terminus; expressed in transfected cells; host or cells: HEK293T stably expressing human RTP1S(V227I) and RTP2(L220R)
T1 sequence (Q8NH01 with tags, fused parts or gaps C119R): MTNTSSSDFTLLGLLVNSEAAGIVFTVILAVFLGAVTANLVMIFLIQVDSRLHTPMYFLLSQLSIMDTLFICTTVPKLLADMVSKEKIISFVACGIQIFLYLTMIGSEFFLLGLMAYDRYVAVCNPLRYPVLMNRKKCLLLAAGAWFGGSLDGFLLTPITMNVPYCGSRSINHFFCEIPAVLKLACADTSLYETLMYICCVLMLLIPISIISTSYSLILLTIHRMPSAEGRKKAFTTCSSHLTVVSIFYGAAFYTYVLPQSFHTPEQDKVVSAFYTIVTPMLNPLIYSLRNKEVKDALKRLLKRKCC

OR2T4 = target: T2, OR2T4 (Homo sapiens, UniProt Q8NH00, D328E/G331D/M330K); conditions: for % of the activation by the optimized sequence RNKEVKDALKRLLKRKCC: OR2T4 variant
T2 sequence (Q8NH00 with tags, fused parts or gaps D328E/M330K/G331D): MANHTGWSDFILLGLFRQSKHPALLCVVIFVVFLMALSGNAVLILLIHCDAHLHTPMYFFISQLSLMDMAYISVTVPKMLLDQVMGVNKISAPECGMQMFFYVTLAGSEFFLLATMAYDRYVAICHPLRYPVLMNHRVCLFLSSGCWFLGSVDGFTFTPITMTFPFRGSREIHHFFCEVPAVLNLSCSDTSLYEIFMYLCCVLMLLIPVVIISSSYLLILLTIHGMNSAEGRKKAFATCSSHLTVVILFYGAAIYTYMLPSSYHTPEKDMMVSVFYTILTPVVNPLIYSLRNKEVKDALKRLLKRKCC

OR8K3 = target: T3, OR8K3 (Homo sapiens, UniProt Q8NH51, D295E/L122R/Y298D); assay: cell-based; type: cell-based
T3 construct: Improved functional expression of modified OR-genes containing the truncated, optimized C-terminus; expressed in transfected cells; host or cells: HEK293T stably expressing human RTP1S(V227I) and RTP2(L220R)
T3 sequence (Q8NH51 with tags, fused parts or gaps L122R/D295E/Y298D): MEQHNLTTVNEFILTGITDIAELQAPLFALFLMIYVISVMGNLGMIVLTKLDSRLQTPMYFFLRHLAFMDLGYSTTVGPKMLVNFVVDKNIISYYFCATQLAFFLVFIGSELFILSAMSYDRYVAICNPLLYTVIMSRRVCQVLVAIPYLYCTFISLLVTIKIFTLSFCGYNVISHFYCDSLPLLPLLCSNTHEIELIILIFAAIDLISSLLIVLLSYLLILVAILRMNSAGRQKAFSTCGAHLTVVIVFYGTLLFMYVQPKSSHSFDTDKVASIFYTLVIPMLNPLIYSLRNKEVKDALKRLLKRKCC

OR7C1 = target: T4, OR7C1 (Homo sapiens, UniProt O76099, D296E/G302K/M297V/R299D/T295K/V126I); assay: CRE-luciferase assay, HEK293T cells expressing OR7C1 (wild-type / modified C-terminus); type: cell-based
T4 construct: Improved functional expression of modified OR-genes containing the truncated, optimized C-terminus; expressed in transfected cells; host or cells: HEK293T stably expressing human RTP1S(V227I) and RTP2(L220R)
T4 sequence (O76099 with tags, fused parts or gaps V126I/T295K/D296E/M297V/R299D/G302K): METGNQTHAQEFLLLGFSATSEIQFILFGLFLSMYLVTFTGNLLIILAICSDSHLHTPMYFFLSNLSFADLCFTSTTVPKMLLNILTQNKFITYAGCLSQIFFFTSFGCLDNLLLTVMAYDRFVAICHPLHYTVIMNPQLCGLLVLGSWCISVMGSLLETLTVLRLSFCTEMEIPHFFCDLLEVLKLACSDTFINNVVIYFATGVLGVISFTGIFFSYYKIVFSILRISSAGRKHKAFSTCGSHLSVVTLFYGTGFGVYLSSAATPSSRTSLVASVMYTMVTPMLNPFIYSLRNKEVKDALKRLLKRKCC
Source text: To test for possible variants of the sequence […]CC (SEQ ID NO: 86) leading to similar improved functional expression, different point mutations were introduced into the first 16 amino acids of this sequence (corresponding to […], SEQ ID NO: 10) and the variants were fused after the TM7 with OR7C1. […] The test concentrations were selected to fall into the range of partial activity of the wild-type sequence.

OR7D4 = target: T5, OR7D4 (Homo sapiens, UniProt Q8NG98, D296E/E302K/G299D); assay: CRE-luciferase assay, HEK cells expressing OR7D4 (wild-type / modified C-terminus); type: cell-based; conditions: OR7D4 variant, Androstenone
T5 construct: Improved functional expression of modified OR-genes containing the truncated, optimized C-terminus; expressed in transfected cells
T5 sequence (Q8NG98 with tags, fused parts or gaps D296E/G299D/E302K): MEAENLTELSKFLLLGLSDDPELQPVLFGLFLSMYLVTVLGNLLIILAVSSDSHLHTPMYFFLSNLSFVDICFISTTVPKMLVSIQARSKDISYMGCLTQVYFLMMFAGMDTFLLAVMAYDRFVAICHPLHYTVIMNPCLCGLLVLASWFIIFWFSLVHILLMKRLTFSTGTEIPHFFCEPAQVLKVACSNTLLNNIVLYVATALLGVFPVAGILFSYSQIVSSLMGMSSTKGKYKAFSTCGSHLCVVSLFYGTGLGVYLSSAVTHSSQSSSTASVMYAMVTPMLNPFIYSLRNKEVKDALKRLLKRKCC
Source text: Random permutations of the general C-terminal sequence RN[KR][EDQ][VMIL][KR]KA[LIV][KRH][KR][LI][LIF][KRG][KR][KR]CC (SEQ ID NO: 822) linked to OR7D4 were generated based on degenerate oligonucleotides for the C-terminal domain. For this experiment, the MfeI/XhoI fragment from pcDNA3.1(+)-mmLucy-FLAG-rho-OR7D4 containing the CMV promoter and the OR coding sequence was used to replace the EcoRI/SalI fragment of pRDVCCB-CMV-dCas9-VPH-2A-Blast (Cellecta, Inc., Mountain View, USA). Complementary degenerate oligonucleotides were then used to replace the coding region of the C-terminal domain of […] (between Bsu36I and NotI). Random clones were selected, sequenced and tested for a correct open reading frame. A total of 55 clones were obtained with the correct open reading frame of […] and a permutation of the general sequence RN[KR][EDQ][VMIL][KR]KA[LIV][KRH][KR][LI][LIF][KRG][KR][KR]CC (SEQ ID NO: 822) as the C-terminal domain. All the different clones were compared to the wild-type sequence by the functional assay in HEK cells with the ligand Androstenone tested in a dose-response test.

OR5B12 = target: T6, OR5B12 (Homo sapiens, UniProt Q96R08, C141R); assay: CRE-luciferase assay, HEK293T cells expressing OR5B12 (wild-type / modified C-terminus); type: cell-based; conditions: OR5B12 variant
T6 construct: Improved functional expression of modified OR-genes containing the truncated, optimized C-terminus; expressed in transfected cells; host or cells: HEK293T stably expressing human RTP1S(V227I) and RTP2(L220R)
T6 sequence (Q96R08 with tags, fused parts or gaps C141R): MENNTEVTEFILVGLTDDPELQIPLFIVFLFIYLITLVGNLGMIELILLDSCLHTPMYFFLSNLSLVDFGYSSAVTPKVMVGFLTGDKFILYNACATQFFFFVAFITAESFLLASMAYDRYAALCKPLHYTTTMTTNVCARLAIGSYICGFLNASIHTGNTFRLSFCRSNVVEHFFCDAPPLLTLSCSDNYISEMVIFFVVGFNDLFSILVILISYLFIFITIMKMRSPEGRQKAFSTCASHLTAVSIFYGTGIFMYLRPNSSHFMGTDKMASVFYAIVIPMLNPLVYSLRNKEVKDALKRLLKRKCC

OR52A5 = target: T7, OR52A5 (Homo sapiens, UniProt Q9H2C5); type: cell-based
T7 construct: Improved functional expression of modified OR-genes containing the truncated, optimized C-terminus; expressed in transfected cells; host or cells: HEK293T stably expressing human RTP1S(V227I) and RTP2(L220R)
T7 sequence (Q9H2C5 with tags, fused parts or gaps): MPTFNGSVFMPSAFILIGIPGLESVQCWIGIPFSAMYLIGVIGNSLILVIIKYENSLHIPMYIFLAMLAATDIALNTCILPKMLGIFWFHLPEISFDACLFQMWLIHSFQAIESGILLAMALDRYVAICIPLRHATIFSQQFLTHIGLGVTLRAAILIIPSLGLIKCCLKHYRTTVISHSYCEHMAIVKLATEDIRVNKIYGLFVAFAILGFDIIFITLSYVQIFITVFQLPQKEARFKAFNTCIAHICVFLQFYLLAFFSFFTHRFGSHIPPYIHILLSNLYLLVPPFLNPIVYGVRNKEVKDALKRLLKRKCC
Procedure: Further variants of the improved C-terminal domain sequence […] (SEQ ID NO: 86) and falling within the general sequence RN[KR][EDQ][VMIL][KR]xA[LIV][KRH][KR][LI][LIF][KRG][KR][KR] (SEQ ID NO: 1) with further amino acids at the C-terminal end (CC) were tested on the class I receptor OR52A5 activated by 4-ethyloctanoic acid. […] This activation is further improved by either replacing amino acid position 4-6 with the sequence QIR or by adding the terminal sequence RRR.

OR5A2 = target: T8, OR5A2 (Homo sapiens, UniProt Q8NGI9); assay: CRE-luciferase assay, HEK293T cells expressing OR5A2 (wild-type / modified C-terminus); type: cell-based; conditions: OR5A2 variant
T8 construct: Improved functional expression of modified OR-genes containing the truncated, optimized C-terminus; expressed in transfected cells; host or cells: HEK293T with stably integrated human RTP1S(V227I) and RTP2(L220R)
T8 sequence (Q8NGI9 with tags, fused parts or gaps): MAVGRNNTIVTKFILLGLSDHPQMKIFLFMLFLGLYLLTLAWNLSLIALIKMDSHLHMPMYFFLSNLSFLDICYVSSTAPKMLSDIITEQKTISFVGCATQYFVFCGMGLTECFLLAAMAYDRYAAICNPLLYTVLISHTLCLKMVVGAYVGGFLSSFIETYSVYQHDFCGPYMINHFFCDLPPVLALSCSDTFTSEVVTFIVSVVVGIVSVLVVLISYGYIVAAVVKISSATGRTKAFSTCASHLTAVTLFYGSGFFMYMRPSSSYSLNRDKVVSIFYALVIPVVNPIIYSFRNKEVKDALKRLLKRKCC

Compound: C=CCSSCC=C [Diallyl disulfide]
- Comments on efficacy (OR2T11): No induction
- Detection threshold; concentration for 2-fold induction (OR2T11; changed C-term. SEQ ID NO: 86): 2.03 µM
- EC50 (OR2T11; changed C-term. SEQ ID NO: 86): 6.51 µM
- Fold-improvement potency (OR2T11; changed C-term. vs wild-type): >>40
- Fold-improvement threshold (OR2T11; changed C-term. vs wild-type): >100
- Detection threshold; concentration for 2-fold induction (OR2T11; wild-type): >200 µM
- EC50 (OR2T11; wild-type): > 200 µM
- ligand identification in sulfur odorant screen (OR2T4; OR2T4 with optimized C-terminus SEQ ID NO: 86): good ligands

Compound: CC1CCC(C(C)C)C(O)C1 (stereo not shown) [Menthol]
- Comments on efficacy (OR8K3): 3-fold lower
- functional response of chimeric OR8K3 (OR8K3; C-terminal sequence of OR1N2 or OR5AN1): did not show any functional response
- EC50 (OR8K3; changed C-term. SEQ ID NO: 86): 115 µM
- Fold-improvement potency (OR8K3; changed C-term. vs wild-type): 2
- Fold-improvement threshold (OR8K3; changed C-term. vs wild-type): 14.4
- EC50 (OR8K3; wild-type): 236 µM

- luciferase induction (OR7C1; 1 μM of Ambermax): around 10 fold
- % of the activation by the optimized sequence RNKEVKDALKRLLKRKCC (OR7C1; OR7C1 variant, 1 μM Ambermax): 100%
- EC2 (concentration for 2-fold luciferase induction) (OR7D4): 0.007 µM
- EC2 Fold-improvement vs. wild-type (OR7D4): 249.44
- % of the activation by the optimized sequence RNKEVKDALKRLLKRKCC (OR5B12; 31 μM Hedione HC): 100%
- % of the activation by the optimized sequence RNKEVKDALKRLLKRKCC (OR5B12; 62.5 μM Hedione HC): 100%
- fold-induction of luciferase (OR5A2; muscone 0.01 μM): 1.07
- fold-induction of luciferase (OR5A2; muscone 0.03 μM): 1.48
- fold-induction of luciferase (OR5A2; muscone 0.10 μM): 3.57
- fold-induction of luciferase (OR5A2; muscone 0.32 μM): 10.02
- fold-induction of luciferase (OR5A2; muscone 1.00 μM): 21.98
- fold-induction of luciferase (OR5A2; muscone 3.16 μM): 31.84
- fold-induction of luciferase (OR5A2; muscone 10.00 μM): 33.98
- % of the activation by the optimized sequence RNKEVKDALKRLLKRKCC (OR2T4; 4 μM 2-methyl-3-tetrahydrofuranethiol): 100%
- % of the activation by the optimized sequence RNKEVKDALKRLLKRKCC (OR2T4; 8 μM 2-methyl-3-tetrahydrofuranethiol): 100%
- % of the activation by the optimized sequence RNKEVKDALKRLLKRKCC (OR2T4; 10 μM Cyclopentanethiol, 30 μM copper): 100%
- % of the activation by the optimized sequence RNKEVKDALKRLLKRKCC (OR2T4; 31 μM Cyclopentanethiol, 30 μM copper): 100%
Compound: SEQ ID NO: 86: optimized C-terminal sequence fused after TM7 of the OR of the assay (RNKEVKDALKRLLKRKCC; source 1..18: note = C-terminal domain sequence)
- fold induction of luciferase by 4-ethyloctanoic acid (OR52A5; 1 µM): 2.21
- fold induction of luciferase by 4-ethyloctanoic acid (OR52A5; 10 µM): 3.53
- fold induction of luciferase by 4-ethyloctanoic acid (OR52A5; 31 µM): 7.64

Source: US20260210939A1, “MODIFIED OLFACTORY RECEPTORS” (GIVAUDAN SA, priority 2022, published 2026)
